Data as given in US20250215104A1 (published 2025).

Target: human suPAR (hsuPAR) recombinant protein (human, UniProt Q03405 23-303)
Assay: BLI; avid

Sequence of human suPAR (hsuPAR) recombinant protein (Q03405 23-303): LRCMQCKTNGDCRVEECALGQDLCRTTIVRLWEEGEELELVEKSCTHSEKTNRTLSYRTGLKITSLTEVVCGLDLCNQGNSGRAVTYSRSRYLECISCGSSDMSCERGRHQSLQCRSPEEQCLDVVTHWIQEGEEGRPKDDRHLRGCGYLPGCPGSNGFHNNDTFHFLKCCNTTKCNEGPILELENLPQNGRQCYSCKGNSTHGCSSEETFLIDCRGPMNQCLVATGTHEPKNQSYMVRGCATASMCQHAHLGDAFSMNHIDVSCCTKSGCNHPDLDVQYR

B1: WAb0014 (antibody, V domains shown)
VH: QVQLVQSGAEVKKPGASVKVSCKASGYTFTNYYMHWVRQAPGQGLEWMGWIDHESGSTIYAQKFQGRVTMTRDTSTSTVYMELSSLRSEDTAVYYCARGYDVDWFVYWGQGTLVTVSS
VL: DIQMTQSPSSLSASVGDRVTITCSARQSVSYMYWYQQKPGKAPKLLIYRTSNLASGVPSRFSGSGSGTDFTLTISSLQPEDFATYYCQQYHSYPPTFGGGTKVEIKR
Kd: < 1 pM
